Like-named read-outs stand apart in the source and are kept apart here.
Legend:
[1] = Stability of SN-38 (lactone / lactone ring opening vs pH); type: physicochemical
Method: A hydrochloric acid solution with a pH of 4 and a sodium hydroxide solution with a pH of 10 were prepared respectively. 5 mg of SN-38 was dissolved in 5 mL of acetonitrile. The stability of SN-38 in a solution of changing pH (pH=10 to pH=4) was measured by shaking SN-38 at room temperature under pH=10 for 10 min, then adjusting the pH back to 4 and shake at room temperature for 10 min before sampling. SN-38 was then incubated at room temperature overnight (16 h) on a shaker and assayed afterwards.

HCT15-hPDL1 cells = assay: cells; type: cell-based, human; settings: 5 days exposure, read-out: HCT15-hPDL1 cell IC50
Method: The cell line was named as HCT15-hPDL1.
(§1) The in vitro anti-tumor activity was determined by CellTiter-Glo® Luminescent Cell Viability Assay (Promega) according to the manufacturer's instructions. […] Untreated cells served as control. ADCs, antibodies, or payloads in 100 μL medium were added in duplicate at various concentrations with a 2-fold dilution series starting with concentrations of 1 uM, respectively. Cells were exposed to test articles for 5 days. Absorbance was measured at 450 nm by a microplate reader. The cell survival rate (%) was calculated using the following formula: sample/control×100%.

PC3-hPDL1-hTROP2 cells = assay: cells; type: cell-based, human; settings: 5 days exposure, read-out: PC3-hPDL1-hTROP2 cell IC50
Method: as §1

HCT15-hPDL1-hTROP2 cells = assay: In vitro cytotoxicity, HCT15-hPDL1-hTROP2 cells; type: cell-based, human
Method: The cell line was named as HCT15-hPDL1-hTROP2.
as §1

CathepsinB = CathepsinB (Homo sapiens, UniProt P07858); assay: Digestion of the drug-linkers by CathepsinB; settings: 125 nM enzyme, 62.5 μM drug-linker, pH 5.5, 37° C., 3 hours
Method: To simulate the release of drug under physiological conditions, the drug-linkers were subjected to cleavage by CathepsinB, after which an elimination reaction occurred and unmodified drug was released.
Lyophilized CathepsinB enzyme powder was dissolved in 130 μL of pure water, and divided into 13 tubes of 10 μL each. […] Activation buffer (20 mM sodium acetate, 30 mM DTT, 15 mM EDTA, pH 5.5) was then added to a tube of enzyme to activate the enzyme for 1 hour at room temperature.

[2] = test system: T1, uPA substrate peptide SEQ ID NO: 50
T1 sequence: LSGRSDNH

[3] = test system: T2, uPA substrate peptide SEQ ID NO: 51
T2 sequence: SGRSA

[4] = test system: T3, uPA substrate peptide SEQ ID NO: 52
T3 sequence: LGGSGRSANAILE

[5] = test system: T4, uPA substrate peptide SEQ ID NO: 53
T4 sequence: LGGSGRNAQVRLE

[6] = test system: T5, uPA substrate peptide SEQ ID NO: 54
T5 sequence: GSGRNAQV

[7] = alkaline conditions 10 minutes, then acidic conditions (pH 10→4) before testing
[8] = pH 10→4, after incubation overnight (16 h)

Sequence of Tissue-type Plasminogen Activator (tPA) (P00750 36-562): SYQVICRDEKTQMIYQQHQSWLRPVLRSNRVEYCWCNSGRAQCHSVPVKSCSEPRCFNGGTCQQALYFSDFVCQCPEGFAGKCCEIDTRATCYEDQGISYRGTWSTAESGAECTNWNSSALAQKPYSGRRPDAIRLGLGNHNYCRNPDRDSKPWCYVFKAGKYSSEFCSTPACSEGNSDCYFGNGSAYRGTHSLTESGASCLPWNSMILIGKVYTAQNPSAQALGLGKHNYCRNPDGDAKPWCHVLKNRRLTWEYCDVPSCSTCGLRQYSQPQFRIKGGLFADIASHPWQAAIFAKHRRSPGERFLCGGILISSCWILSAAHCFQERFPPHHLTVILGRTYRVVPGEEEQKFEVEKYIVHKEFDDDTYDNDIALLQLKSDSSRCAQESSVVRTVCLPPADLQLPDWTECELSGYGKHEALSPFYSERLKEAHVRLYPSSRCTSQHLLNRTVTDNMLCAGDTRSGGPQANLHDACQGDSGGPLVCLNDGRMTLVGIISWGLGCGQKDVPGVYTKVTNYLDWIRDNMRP

Which existing as lactone ([1]; acidic conditions (pH 4)) does the source give for `CCc1c2c(nc3ccc(O)cc13)-c1cc3c(c(=O)n1C2)COC(=O)[C@]3(O)CC` [SN38, 7-ethyl-10-hydroxy-20(S)-camptothecin] here?
The existing as lactone was 94%.

And the lactone ring-opening products [1, 7]?
The lactone ring-opening products was 42%.

What about the “present in the form of lactone” value [1, 7] of the same compound?
The value was 56%.

What about the lactone ring-opened form ([1]; alkaline conditions (pH 10)) of the same compound?
The lactone ring-opened form was 92%.

And the “in the form of lactone” value [1, 8]?
Its value is 86%.

What about the lactone ring-opening products [1, 8] of the same compound?
The lactone ring-opening products was 13%.

And the IC50 (HCT15-hPDL1 cells; Homo sapiens, 120 h)?
Its IC50 is 11.2 nM.

What about the IC50 (PC3-hPDL1-hTROP2 cells; Homo sapiens, 120 h) of the same compound?
The IC50 was 8.69 nM.

And the “Maximum Inhibitory Rate” value (HCT15-hPDL1-hTROP2 cells; HCT15-hPDL1-hTROP2 cells)?
Its value is over 99.9%.

And the IC50 (HCT15-hPDL1-hTROP2 cells; Homo sapiens, 120 h, 5 days exposure, read-out: HCT15-hPDL1-hTROP2 cell IC50)?
The IC50 was 9.57 nM.

With “Glycine3-amido-PEG8-VC-PAB-DMAE-phenol linked SN38 [Compound of Formula (1)]” as the compound, how does the IC50 (PC3-hPDL1-hTROP2 cells) read?
The IC50 was over 250 nM.

And the “Product released on CathepsinB digestion” value (CathepsinB)?
The value was “SN38”.

For “Glycine3-amido-PEG8-VC-PAB-DMAE-α-hydroxy lactone linked SN38 [Compound of Formula (2)]”, which IC50 (HCT15-hPDL1 cells) is on record?
Its IC50 is 38.1 nM.

And the IC50 (PC3-hPDL1-hTROP2 cells)?
The IC50 was 53.1 nM.

What about the “CathepsinB digestion” value (CathepsinB) of the same compound?
Its value is “effectively digested”.

What about the “Product released on CathepsinB digestion” value (CathepsinB) of the same compound?
The value was “SN38 derivatives”.

For Tissue-type Plasminogen Activator (tPA), which Fluorescence Intensity, Fold of Increase, tPA digestion at 2.25 × 10^-2 mg/mL (FRET) [2] is on record?
Its Fluorescence Intensity, Fold of Increase, tPA digestion at 2.25 × 10^-2 mg/mL (FRET) is 1.1 fold.

And the Fluorescence Intensity, Fold of Increase, tPA digestion at 7.5 × 10^-3 mg/mL (FRET) [2]?
Its Fluorescence Intensity, Fold of Increase, tPA digestion at 7.5 × 10^-3 mg/mL (FRET) is 0.63 fold.

And the Fluorescence Intensity, Fold of Increase, tPA digestion at 2.25 × 10^-2 mg/mL (FRET) [3]?
The Fluorescence Intensity, Fold of Increase, tPA digestion at 2.25 × 10^-2 mg/mL (FRET) was 5.4 fold.

What about the Fluorescence Intensity, Fold of Increase, tPA digestion at 7.5 × 10^-3 mg/mL (FRET) [3] of the same compound?
Its Fluorescence Intensity, Fold of Increase, tPA digestion at 7.5 × 10^-3 mg/mL (FRET) is 2.1 fold.

What about the Fluorescence Intensity, Fold of Increase, tPA digestion at 2.25 × 10^-2 mg/mL (FRET) [4] of the same compound?
The Fluorescence Intensity, Fold of Increase, tPA digestion at 2.25 × 10^-2 mg/mL (FRET) was 2.1 fold.

What about the Fluorescence Intensity, Fold of Increase, tPA digestion at 7.5 × 10^-3 mg/mL (FRET) [4] of the same compound?
Its Fluorescence Intensity, Fold of Increase, tPA digestion at 7.5 × 10^-3 mg/mL (FRET) is 1.2 fold.

And the Fluorescence Intensity, Fold of Increase, tPA digestion at 2.25 × 10^-2 mg/mL (FRET) [5]?
The Fluorescence Intensity, Fold of Increase, tPA digestion at 2.25 × 10^-2 mg/mL (FRET) was 1.3 fold.

And the Fluorescence Intensity, Fold of Increase, tPA digestion at 7.5 × 10^-3 mg/mL (FRET) [5]?
Its Fluorescence Intensity, Fold of Increase, tPA digestion at 7.5 × 10^-3 mg/mL (FRET) is 0.73 fold.

What about the Fluorescence Intensity, Fold of Increase, tPA digestion at 2.25 × 10^-2 mg/mL (FRET) [6] of the same compound?
Its Fluorescence Intensity, Fold of Increase, tPA digestion at 2.25 × 10^-2 mg/mL (FRET) is 2.6 fold.

And the Fluorescence Intensity, Fold of Increase, tPA digestion at 7.5 × 10^-3 mg/mL (FRET) [6]?
The Fluorescence Intensity, Fold of Increase, tPA digestion at 7.5 × 10^-3 mg/mL (FRET) was 0.91 fold.

For “Urokinase-type Plasminogen Activator (uPA)”, which Fluorescence Intensity, Fold of Increase, uPA cleavage (FRET) [2] is on record?
Its Fluorescence Intensity, Fold of Increase, uPA cleavage (FRET) is 4.9 fold.

And the Fluorescence Intensity, Time to Reach Plateau (h), uPA cleavage (FRET) [2]?
Its Fluorescence Intensity, Time to Reach Plateau (h), uPA cleavage (FRET) is 1.7 h.

And the Fluorescence Intensity, Fold of Increase, uPA cleavage (FRET) [3]?
The Fluorescence Intensity, Fold of Increase, uPA cleavage (FRET) was 9.6 fold.

What about the Fluorescence Intensity, Time to Reach Plateau (h), uPA cleavage (FRET) [3] of the same compound?
Its Fluorescence Intensity, Time to Reach Plateau (h), uPA cleavage (FRET) is 1.8 h.

And the Fluorescence Intensity, Fold of Increase, uPA cleavage (FRET) [4]?
The Fluorescence Intensity, Fold of Increase, uPA cleavage (FRET) was 3.1 fold.

What about the Fluorescence Intensity, Time to Reach Plateau (h), uPA cleavage (FRET) [4] of the same compound?
Its Fluorescence Intensity, Time to Reach Plateau (h), uPA cleavage (FRET) is 1.4 h.

And the Fluorescence Intensity, Fold of Increase, uPA cleavage (FRET) [5]?
Its Fluorescence Intensity, Fold of Increase, uPA cleavage (FRET) is 3 fold.

What about the Fluorescence Intensity, Time to Reach Plateau (h), uPA cleavage (FRET) [5] of the same compound?
The Fluorescence Intensity, Time to Reach Plateau (h), uPA cleavage (FRET) was 1.6 h.

And the Fluorescence Intensity, Fold of Increase, uPA cleavage (FRET) [6]?
The Fluorescence Intensity, Fold of Increase, uPA cleavage (FRET) was 4.7 fold.

What about the Fluorescence Intensity, Time to Reach Plateau (h), uPA cleavage (FRET) [6] of the same compound?
The Fluorescence Intensity, Time to Reach Plateau (h), uPA cleavage (FRET) was 1.4 h.
